Data as given in patent publication US20190367609A1 (INNATE PHARMA, published 2019).
Numbering of substitutions follows the chain as printed. Each block holds one binder with its values, some of them ahead of it.

Key:
[1] = molecular target: T1, human NKp46 expressed on cells (human, UniProt O76036 22-304); test: cell-based or functional assay
[2] = molecular target: T1, human NKp46 expressed on cells; test: flow cytometry on Raji-hNKp46 cells, dose range, anti-human IgG1-PE detection
Method: (§1) Flow cytometry: Cells were harvested and stained in PBS 1×/BSA 0.2%/EDTA 2 mM buffer during 30 minutes at 4° C. using a dose-range of the anti-NKp46 mAbs. After two washes in staining buffer, cells incubated with anti-NKp46 antibodies were stained for 30 min at 4° C. with mouse anti-human IgG1-PE monoclonal antibodies from Miltenyi (dil. 1/10). After two washes, the stainings were acquired on the HTFC Intellicyt device and analyzed using the ForeCyt software.

[3] = molecular target: T2, Macaca fascicularis NKp46 expressed on CHO cells (Macaca fascicularis, UniProt Q95JB9 22-306); test: flow cytometry on CHO cells transfected with cyno NKp46, dose range, anti-human IgG1-PE detection
T2 construct: Cloned from Macaca fascicularis cDNA and transfected into the CHO cell line; also called cyno NKp46; CHO-cynoNKp46
T2 sequence (Q95JB9 22-306 limits assumed): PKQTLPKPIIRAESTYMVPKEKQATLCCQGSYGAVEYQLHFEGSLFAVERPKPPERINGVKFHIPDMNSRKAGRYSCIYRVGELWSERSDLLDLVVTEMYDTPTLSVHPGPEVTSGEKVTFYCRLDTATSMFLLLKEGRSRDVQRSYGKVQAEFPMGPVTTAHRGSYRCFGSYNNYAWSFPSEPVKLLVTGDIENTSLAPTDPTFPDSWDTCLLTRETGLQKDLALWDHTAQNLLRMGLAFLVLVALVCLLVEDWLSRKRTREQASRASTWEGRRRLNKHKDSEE
Method: The antibodies (including 8B6A, 8B6B, 9H11A, 9H11B and 17E1) were assessed for binding to Macaca fascicularis NKp46 (cyno NKp46) protein. The sequence of cyno NKp46 (shown below) was cloned from Macaca fascicularis cDNA and transfected into the CHO cell line. The binding of CHG1-M-H46 to CHO-cynoNKp46 was analyzed by flow cytometry.
as §1, with “cytometry: CHO cells” for “cytometry: Cells”, “Miltenyi (dil” for “Miltenyi (dil.”, “washes,” for “washes, the”, “on a” for “on the”, “Intellicyt” for “Intellicyt device”, “using” for “using the”

[4] = molecular target: T3, Human 6xHis tagged NKp46 recombinant protein (human, UniProt O76036 22-255, limits assumed); test: SPR Biacore T100, antibody captured on Protein-G chip, soluble NKp46-His 12.5-200 nM, single cycle kinetics, 1:1 model, monovalent
T3 construct: also called NKp46-His; soluble NKp46-His recombinant proteins; not shown: 6xHis tag
T3 sequence (O76036 22-255 Q82K limits assumed): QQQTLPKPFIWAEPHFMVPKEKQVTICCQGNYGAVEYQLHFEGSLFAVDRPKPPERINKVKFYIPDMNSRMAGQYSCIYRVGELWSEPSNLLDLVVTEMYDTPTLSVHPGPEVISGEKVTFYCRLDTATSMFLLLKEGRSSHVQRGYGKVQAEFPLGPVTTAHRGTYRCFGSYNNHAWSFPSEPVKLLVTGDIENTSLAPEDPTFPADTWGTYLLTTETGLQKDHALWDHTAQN
Method: SPR measurements were performed on a Biacore T100 apparatus (Biacore GE Healthcare) at 25° C. In all Biacore experiments HBS-EP+ (Biacore GE Healthcare) and NaOH 10 mM NaCl 500 mM served as running buffer and regeneration buffer respectively. Sensorgrams were analyzed with Biacore T100 Evaluation software. Protein-G was purchase from GE Healthcare and Anti-His antibody from QIAGEN. Human 6×His tagged NKp46 recombinant proteins (NKp46-His) were cloned, produced and purified at Innate Pharma.
Affinity study has been performed using the Protein-G chip. Monovalent affinity study was done following the Single Cycle Kinetic (SCK) protocol. Five serial dilutions of soluble NKp46-His recombinant proteins ranging from 12.5 to 200 nM were injected over the captured Anti-NKp46 anti bodies (without regeneration) and allowed to dissociate for 10 min before regeneration. For each antibody, the entire sensorgram was fitted using the 1:1 SCK binding model.

T1 sequence (O76036 22-304 Q82K limits assumed): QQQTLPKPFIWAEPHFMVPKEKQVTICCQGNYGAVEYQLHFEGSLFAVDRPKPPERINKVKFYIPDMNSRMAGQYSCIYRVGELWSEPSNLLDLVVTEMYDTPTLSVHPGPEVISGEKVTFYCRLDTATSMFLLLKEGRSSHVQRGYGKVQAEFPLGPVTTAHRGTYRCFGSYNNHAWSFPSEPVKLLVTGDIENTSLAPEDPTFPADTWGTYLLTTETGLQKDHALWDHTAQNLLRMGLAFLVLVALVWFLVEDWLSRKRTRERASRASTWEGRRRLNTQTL

B1: 17E1 antibody-drug conjugate with PBD dimer (DAR=2) (antibody, V domains shown)
VH: QVQLQQPGSVLVRPGASVKLSCKASGYTFTSSWMHWAKQRPGQGLEWIGHIHPNSGISNYNEKFKGKATLTVDTSSSTAYVDLSSLTSEDSAVYYCSRGGRFDDWGAGTTVTVSS
VL: DIQMTQSPSSLSASLGERVSLTCRASQDIGSSLNWLQQEPDGTIKRLIYATSRLDSGVPKRFSGSRSGSDYSLTISSLESEDFVDYYCLQYASSPWTFGGGTKLEIK
modifications: PBD dimer through amino-PEG-azide / DBCO-val-ala linker on Q295 (Kabat EU numbering) of each heavy chain; deglycosylated with PNGaseF
- IC50 for cytotoxicity towards SNK6 cells (Cell Titer Glo, 72 h) [1]: 0.01 ng/mL

- EC50 [2]: 55 ng/mL
- EC50 [3]: 59 ng/mL
B2: 17E1 (antibody, V domains shown)
VH: B1 VH
VL: B1 VL
notes: also called CHG1-M-H46 17E1

- EC50 [2]: 76 ng/mL
- EC50 [3]: 28 ng/mL
- Kd [4]: 4.07 nM
- koff [4]: 0.0011 s⁻¹
- kon [4]: 271000 M⁻¹ s⁻¹
B3: 8B6B (antibody, V domains shown)
VH: QVQLQQPGSELVRPGASVKLSCKASGYTFTSYWMHWVKQRPGQGLEWIGTIYPGSDITNYDEKFKNKATLTVDTSSSTAYMQLSSLTSEDSAVYYCTRDGRFANWGQGTLVTVSA
VL: B1 VL with D1E, R53S, W96Y
notes: Same heavy chain variable domain as 8B6A with a different light chain; also called CHG1-M-H46 8B6-B

- EC50 [2]: 148 ng/mL
- EC50 [3]: 29 ng/mL
- Kd [4]: 4.08 nM
- koff [4]: 0.00109 s⁻¹
- kon [4]: 267000 M⁻¹ s⁻¹
B4: 8B6A (antibody, V domains shown)
VH: B3 VH
VL: EIVLTQSPAITAASLGQKVTITCSASSSVSYMHWYQQKSGTSPKPWIYEISKLASGVPARFSGSGSGTSYSLTISSMEAEDAAIYYCQQWNLPLTFGAGTKLELK
notes: Mouse variable domains; light chain is kappa (VK); also called CHG1-M-H46 8B6-A

B5: 9H11A antibody-drug conjugate with PBD dimer (DAR=2) (antibody, V domains shown)
VH: QVQLQQPGAELVKPGASVKLSCKASGYTFTSYWMHWVKLRPGQGFEWIGEIIPSNGVTNYNEKFKRKATLTVDKSSSTAYMQLSSLTSEDSAVYYCTIRLRYALDYWGQGTSVTVSA
VL: DIQMTQTTSSLSASLGDRVTISCRASQDISNFLNWYQQKPDGTVKLLIYYTSRLHSGVPSRFSGSGSGTDYSLTISNLEQEDIATYFCQQGNTLPPTFGGGTKLEIK
modifications: PBD dimer through amino-PEG-azide / DBCO-val-ala linker on Q295 (Kabat EU numbering) of each heavy chain; deglycosylated with PNGaseF
- IC50 for cytotoxicity towards SNK6 cells (Cell Titer Glo, 72 h) [1]: 0.02 ng/mL

- EC50 [2]: 51 ng/mL
- EC50 [3]: 26 ng/mL
- Kd [4]: 0.728 nM
- koff [4]: 0.000199 s⁻¹
- kon [4]: 273000 M⁻¹ s⁻¹
B6: 9H11A (antibody, V domains shown)
VH: B5 VH
VL: B5 VL
notes: also called CHG1-M-H46 9H11-A

B7: 9H11B antibody-drug conjugate with PBD dimer (DAR=2) (antibody, V domains shown)
VH: B5 VH
VL: DIVMTQSQKFMSTSVGDRVSVTCKASQNVGTNVAWYQQKPGQSPKALIYSTSFRYSGVPDRFTGSGSGTDFTLTISNVQSEDLAEYFCQQYNSYPFTFGSGTKLEIK
modifications: PBD dimer through amino-PEG-azide / DBCO-val-ala linker on Q295 (Kabat EU numbering) of each heavy chain; deglycosylated with PNGaseF
- IC50 for cytotoxicity towards SNK6 cells (Cell Titer Glo, 72 h) [1]: 0.01 ng/mL

- EC50 [2]: 124 ng/mL
- EC50 [3]: 25 ng/mL
- Kd [4]: 0.892 nM
- koff [4]: 0.000253 s⁻¹
- kon [4]: 283000 M⁻¹ s⁻¹
B8: 9H11B (antibody, V domains shown)
VH: B5 VH
VL: B7 VL
notes: Same heavy chain variable domain as 9H11A with a different light chain; also called CHG1-M-H46 9H11-B
